In PMC6745501, “Plant photoreceptors and their signaling components compete for COP1 binding via VP peptide motifs” (The EMBO Journal, 2019):

Target: UVR8^HY5C44 chimera (recombinant) (Arabidopsis)
Experiment: SEC; purified recombinant chimeric UVR8 proteins alone, in the absence of UV-B

stoichiometry N: 2
Substance: UVR8^HY5C44 chimera (recombinant)
